Measured values taken from article PMC9177958, “Structures of nonsense-mediated mRNA decay factors UPF3B and UPF3A in complex with UPF2 reveal molecular basis for competitive binding and for neurodevelopmental disorder-causing mutation” (Nucleic Acids Research, 2022).

B1: biotinylated Avi-UPF2-MIF4GIII (domain or fragment, UniProt Q9HAU5 761-1054, looked up)
chain: EKTVKKKRPPLQEYVRKLLYKDLSKVTTEKVLRQMRKLPWQDQEVKDYVICCMINIWNVKYNSIHCVANLLAGLVLYQEDVGIHVVDGVLEDIRLGMEVNQPKFNQRRISSAKFLGELYNYRMVESAVIFRTLYSFTSFGVNPDGSPSSLDPPEHLFRIRLVCTILDTCGQYFDRGSSKRKLDCFLVYFQRYVWWKKSLEVWTKDHPFPIDIDYMISDTLELLRPKIKLCNSLEESIRQVQDLEREFLIKLGLVNDKDSKDSMTEGENLEEDEEEEEGGAETEEQSGNESEVNE
modifications: biotin on the Avi tag (BirA)
notes: UPF2, third middle-domain of eukaryotic initiation factor 4G (MIF4GIII), residues 761-1054; Avi tag added by site-directed mutagenesis to UPF2-MIF4GIII; also called immobilized UPF2-MIF4GIII; source: E. coli BL21 Rosetta2(DE3), purified (Ni-NTA, TEV, reverse IMAC, ion exchange); biotinylated with BirA, SEC

Biological target: T1, UPF3B-WT (residues 1–470) (human, UniProt Q9BZI7-2 1-470)
T1 construct: UPF3B, human, isoform 2 (the predominant form found in cells), residues 1-470, printed length 470; also called full-length UPF3B; source: insect cells (MultiBac), purified (Ni-NTA, TEV, reverse IMAC, ion exchange)
T1 sequence (looked up): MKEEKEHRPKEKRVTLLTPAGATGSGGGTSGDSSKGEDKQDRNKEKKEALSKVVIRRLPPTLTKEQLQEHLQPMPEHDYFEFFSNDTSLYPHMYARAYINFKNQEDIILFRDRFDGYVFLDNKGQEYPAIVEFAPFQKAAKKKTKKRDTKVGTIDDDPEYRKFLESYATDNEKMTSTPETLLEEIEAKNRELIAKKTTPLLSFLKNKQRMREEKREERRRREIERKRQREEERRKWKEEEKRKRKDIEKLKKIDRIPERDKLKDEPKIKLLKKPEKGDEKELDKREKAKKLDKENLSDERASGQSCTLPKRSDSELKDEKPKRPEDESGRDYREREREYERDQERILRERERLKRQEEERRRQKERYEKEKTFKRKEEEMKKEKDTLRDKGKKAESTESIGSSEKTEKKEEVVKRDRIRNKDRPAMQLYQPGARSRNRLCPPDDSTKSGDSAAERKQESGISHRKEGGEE
Test: SPR; 350 RU biotinylated Avi-UPF2-MIF4GIII immobilised on an SA chip (Biacore T200); UPF3B and UPF3A constructs injected; 15°C; 300 mM NaCl, 25 mM HEPES pH 7.4, 0.25 mM TCEP, 0.05% Tween-20; global fit, 1:1 binding model
Details: both partners purified

Binder	Kd [nM]
B1	0.47

Biological target: B1
Test: as above
Details: both partners purified

Binder	Kd [nM]
UPF3B-41–189 (domain or fragment, human, UniProt Q9BZI7 41-189, looked up, UPF3B, human, RRM-L and N-terminal part of the middle-domain (NOPS-L), residues 41-189; also called UPF3B-1–189 (as printed once); source: E. coli BL21 Rosetta2(DE3), purified (Ni-NTA, TEV, reverse IMAC, ion exchange)) DRNKEKKEALSKVVIRRLPPTLTKEQLQEHLQPMPEHDYFEFFSNDTSLYPHMYARAYINFKNQEDIILFRDRFDGYVFLDNKGQEYPAIVEFAPFQKAAKKKTKKRDTKVGTIDDDPEYRKFLESYATDNEKMTSTPETLLEEIEAKN	3.6
UPF3B-41–189 F163A (domain or fragment, human, UniProt Q9BZI7 41-189, looked up, UPF3B, human, residues 41-189 with F163A; it is named in the results; source: E. coli BL21 Rosetta2(DE3), purified (Ni-NTA, TEV, reverse IMAC, ion exchange)) DRNKEKKEALSKVVIRRLPPTLTKEQLQEHLQPMPEHDYFEFFSNDTSLYPHMYARAYINFKNQEDIILFRDRFDGYVFLDNKGQEYPAIVEFAPFQKAAKKKTKKRDTKVGTIDDDPEYRKALESYATDNEKMTSTPETLLEEIEAKN	90
UPF3B-41–189 Y160A (domain or fragment, human, UniProt Q9BZI7 41-189, looked up, UPF3B, human, residues 41-189 with Y160A; source: E. coli BL21 Rosetta2(DE3), purified (Ni-NTA, TEV, reverse IMAC, ion exchange)) DRNKEKKEALSKVVIRRLPPTLTKEQLQEHLQPMPEHDYFEFFSNDTSLYPHMYARAYINFKNQEDIILFRDRFDGYVFLDNKGQEYPAIVEFAPFQKAAKKKTKKRDTKVGTIDDDPEARKFLESYATDNEKMTSTPETLLEEIEAKN	88
UPF3B-41–189 Y160A + Y167A (domain or fragment, human, UniProt Q9BZI7 41-189, looked up, UPF3B, human, residues 41-189 with Y160A and Y167A; source: E. coli BL21 Rosetta2(DE3), purified (Ni-NTA, TEV, reverse IMAC, ion exchange)) DRNKEKKEALSKVVIRRLPPTLTKEQLQEHLQPMPEHDYFEFFSNDTSLYPHMYARAYINFKNQEDIILFRDRFDGYVFLDNKGQEYPAIVEFAPFQKAAKKKTKKRDTKVGTIDDDPEARKFLESAATDNEKMTSTPETLLEEIEAKN	~130
UPF3B-41–189 Y160D (domain or fragment, human, UniProt Q9BZI7 41-189, looked up, UPF3B, human, residues 41-189 with the disease-causing (XLID) mutation Y160D; Y160D is a patient mutation and is also used as a phosphomimetic; also called UPF3B-Y160D; phosphomimetic/disease mutation; source: E. coli BL21 Rosetta2(DE3), purified (Ni-NTA, TEV, reverse IMAC, ion exchange)) DRNKEKKEALSKVVIRRLPPTLTKEQLQEHLQPMPEHDYFEFFSNDTSLYPHMYARAYINFKNQEDIILFRDRFDGYVFLDNKGQEYPAIVEFAPFQKAAKKKTKKRDTKVGTIDDDPEDRKFLESYATDNEKMTSTPETLLEEIEAKN	140
UPF3B-41–189 Y160D + Y167D (domain or fragment, human, UniProt Q9BZI7 41-189, looked up, UPF3B, human, residues 41-189 with Y160D and Y167D; source: E. coli BL21 Rosetta2(DE3), purified (Ni-NTA, TEV, reverse IMAC, ion exchange)) DRNKEKKEALSKVVIRRLPPTLTKEQLQEHLQPMPEHDYFEFFSNDTSLYPHMYARAYINFKNQEDIILFRDRFDGYVFLDNKGQEYPAIVEFAPFQKAAKKKTKKRDTKVGTIDDDPEDRKFLESDATDNEKMTSTPETLLEEIEAKN	~130
UPF3B-41–189 Y167A (domain or fragment, human, UniProt Q9BZI7 41-189, looked up, UPF3B, human, residues 41-189 with Y167A; source: E. coli BL21 Rosetta2(DE3), purified (Ni-NTA, TEV, reverse IMAC, ion exchange)) DRNKEKKEALSKVVIRRLPPTLTKEQLQEHLQPMPEHDYFEFFSNDTSLYPHMYARAYINFKNQEDIILFRDRFDGYVFLDNKGQEYPAIVEFAPFQKAAKKKTKKRDTKVGTIDDDPEYRKFLESAATDNEKMTSTPETLLEEIEAKN	3.3
UPF3B-41–189 Y167D (domain or fragment, human, UniProt Q9BZI7 41-189, looked up, UPF3B, human, residues 41-189 with Y167D; also called Y167D (phosphomimetic); source: E. coli BL21 Rosetta2(DE3), purified (Ni-NTA, TEV, reverse IMAC, ion exchange)) DRNKEKKEALSKVVIRRLPPTLTKEQLQEHLQPMPEHDYFEFFSNDTSLYPHMYARAYINFKNQEDIILFRDRFDGYVFLDNKGQEYPAIVEFAPFQKAAKKKTKKRDTKVGTIDDDPEYRKFLESDATDNEKMTSTPETLLEEIEAKN	7.4
UPF3A-58–206-Iso1 (domain or fragment, human, UniProt Q9H1J1 58-206, looked up, Codon-optimized for E. coli, gene-synthesized; also called UPF3A-58–208 (as printed once); source: E. coli BL21 Rosetta2(DE3), purified (Ni-NTA, TEV, reverse IMAC, ion exchange)) KPREEKRTALSKVVIRRLPPGLTKEQLEEQLRPLPAHDYFEFFAADLSLYPHLYSRAYINFRNPDDILLFRDRFDGYIFLDSKGLEYPAVVEFAPFQKIAKKKLRKKDAKTGSIEDDPEYKKFLETYCVEEEKTSANPETLLGEMEAKT	0.22
UPF3A-58–206-NOPS* C185A-V186T-E187D (domain or fragment, human, UniProt Q9H1J1 58-206, looked up, also called NOPS* construct; source: E. coli BL21 Rosetta2(DE3), purified (Ni-NTA, TEV, reverse IMAC, ion exchange)) KPREEKRTALSKVVIRRLPPGLTKEQLEEQLRPLPAHDYFEFFAADLSLYPHLYSRAYINFRNPDDILLFRDRFDGYIFLDSKGLEYPAVVEFAPFQKIAKKKLRKKDAKTGSIEDDPEYKKFLETYATDEEKTSANPETLLGEMEAKT	2.6
UPF3A-58–206-RRM* A101S-A102N-L104T (domain or fragment, human, UniProt Q9H1J1 58-206, looked up, also called RRM* construct; source: E. coli BL21 Rosetta2(DE3), purified (Ni-NTA, TEV, reverse IMAC, ion exchange)) KPREEKRTALSKVVIRRLPPGLTKEQLEEQLRPLPAHDYFEFFSNDTSLYPHLYSRAYINFRNPDDILLFRDRFDGYIFLDSKGLEYPAVVEFAPFQKIAKKKLRKKDAKTGSIEDDPEYKKFLETYCVEEEKTSANPETLLGEMEAKT	0.77
UPF3B-41–143 (domain or fragment, human, UniProt Q9BZI7 41-143, looked up, UPF3B, human, RRM-L domain, residues 41-143; also called RRM-L alone; RRM-L only; source: E. coli BL21 Rosetta2(DE3), purified (Ni-NTA, TEV, reverse IMAC, ion exchange)) DRNKEKKEALSKVVIRRLPPTLTKEQLQEHLQPMPEHDYFEFFSNDTSLYPHMYARAYINFKNQEDIILFRDRFDGYVFLDNKGQEYPAIVEFAPFQKAAKKK	720

Biological target: T2, UPF3A-WT (human, UniProt Q9H1J1 1-476)
T2 construct: UPF3A, human, full length; The cloning of UPF3A-WT is not described in the methods; also called full-length UPF3A-WT; source: insect cells (MultiBac), purified (Ni-NTA, TEV, reverse IMAC, ion exchange)
T2 sequence (looked up): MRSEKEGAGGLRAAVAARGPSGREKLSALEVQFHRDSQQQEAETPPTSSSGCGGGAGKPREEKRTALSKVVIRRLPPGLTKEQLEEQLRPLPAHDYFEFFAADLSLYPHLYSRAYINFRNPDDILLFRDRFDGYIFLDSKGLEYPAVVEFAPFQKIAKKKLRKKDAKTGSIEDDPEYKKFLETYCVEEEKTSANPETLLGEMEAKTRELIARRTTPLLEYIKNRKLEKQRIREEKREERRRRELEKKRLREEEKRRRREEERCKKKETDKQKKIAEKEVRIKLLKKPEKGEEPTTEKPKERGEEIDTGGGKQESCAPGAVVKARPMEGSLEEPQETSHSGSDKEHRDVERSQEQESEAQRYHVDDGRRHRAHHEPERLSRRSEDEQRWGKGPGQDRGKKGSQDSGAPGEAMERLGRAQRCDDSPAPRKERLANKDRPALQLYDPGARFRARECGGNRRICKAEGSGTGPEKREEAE
Test: as above
Details: both partners purified

Binder	Kd [nM]
B1	0.048

Biological target: T3, UPF3B-WT (human, UniProt Q9BZI7-2 1-470)
T3 sequence: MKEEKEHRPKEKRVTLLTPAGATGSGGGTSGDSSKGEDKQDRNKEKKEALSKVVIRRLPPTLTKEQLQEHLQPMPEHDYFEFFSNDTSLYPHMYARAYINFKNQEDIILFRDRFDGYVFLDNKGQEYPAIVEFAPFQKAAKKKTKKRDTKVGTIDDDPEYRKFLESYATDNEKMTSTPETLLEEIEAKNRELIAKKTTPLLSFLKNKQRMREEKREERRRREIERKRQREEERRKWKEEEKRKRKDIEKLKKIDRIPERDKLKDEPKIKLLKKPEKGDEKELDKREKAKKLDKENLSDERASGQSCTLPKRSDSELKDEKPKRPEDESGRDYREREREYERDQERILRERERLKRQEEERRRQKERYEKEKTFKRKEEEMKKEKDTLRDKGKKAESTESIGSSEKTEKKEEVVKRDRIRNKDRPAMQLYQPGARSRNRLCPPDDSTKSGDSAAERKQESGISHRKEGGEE
Test: fluorescence anisotropy; FA: 5 nM probe, 150 mM NaCl, 25 mM HEPES pH 7.45, 1 mM TCEP, 20 C; EMSA: 250 nM probe, 25 mM HEPES pH 7.45, 2 mM MgCl2, 150 mM NaCl, 0.5 mM TCEP, on ice
Details: protein: recombinant; tags: 6xHis removed by TEV; label: 5' HEX on strand 1; blunt

Binder	Kd [nM]
24mer dsDNA (dsDNA) DNA 1: CCCTGAGCTGACGCAGCACCTGGG DNA 2: CCCAGGTGCTGCGTCAGCTCAGGG	61

Same assay, conditions: protein: recombinant; tags: 6xHis removed by TEV; label: 5' HEX; single strand

Binder	Kd [nM]
CCCTGAGCTGACGCAGCACCTGGG (ssDNA) [24mer ssDNA]	190
